From the DeepSol protein solubility set

Experiment: soluble on expression in E. coli; label from the status in PepcDB or PDB records

Sequence	soluble on expression in E. coli
MGSDKIHHHHHHMTTNKEQYKVHQEPYYQAQGREVQLYEAAYRNRLPVMVKGPTGCGKSRFVEYMAWKLNKPLITVACNEDMTASDLVGRYLLEANGTRWLDGPLTTAARIGAICYLDEVVEARQDTTVVIHPLTDHRRTLPLDKKGELIEAHPDFQLVISYNPGYQSLMKDLKQSTKQRFAAFDFDYPDAALETTILARETGLDETTAGRLVKIGGVARNLKGHGLDEGISTRLLVYAATLMKDGVDAGDACRMALVRPITDDADIRETLDHAIDATFA	not soluble
MADRLIVKGAREHNLRSVDLDLPRDALIVFTGLSGSGKSSLAFDTIFAEGQRRYVESLSAYARQFLGQMDKPDVDFIEGLSPAVSIDQKSTNRNPRSTVGTITEVYDYLRLLYARAGTPHCPTCGERVARQTPQQIVDQVLAMPEGTRFLVLAPVVRTRKGEFADLFDKLNAQGYSRVRVDGVVHPLTDPPKLKKQEKHDIEVVVDRLTVKAAAKRRLTDSVETALNLADGIVVLEFVDHELGAPHREQRFSEKLACPNGHALAVDDLEPRSFSFNSPYGACPECSGLGIRKEVDPELVVPDPDRTLAQGAVAPWSNGHTAEYFTRMMAGLGEALGFDVDTPWRKLPAKARKAILEGADEQVHVRYRNRYGRTRSYYADFEGVLAFLQRKMSQTESEQMKERYEGFMRDVPCPVCAGTRLKPEILAVTLAGESKGEHGAKSIAEVCELSIADCADFLNALTLGPREQAIAGQVLKEIRSRLGFLLDVGLEYLSLSRAAATLSGGEAQRIRLATQIGSGLVGVLYVLDEPSIGLHQRDNRRLIETLTRLRDLGNTLIVVEHDEDTIEHADWIVDIGPGAGEHGGRIVHSGPYDELLRNKDSITGAYLSGRESIEIPAIRRSVDPRRQLTVVGAREHNLRGIDVSFPLGVLTSVTGVSGSGKSTLVNDILAAVLANRLNGARQVPGRHTRVTGLDYLDKLVRVDQSPIGRTPRSNPATYTGVFDKIRTLFAATTEAKVRGYQPGRFSFNVKGGRCEACTGDGTIKIEMNFLPDVYVPCEVCQGARYNRETLEVHYKGKTVSEVLDMSIEEAAEFFEPIAGVHRYLRTLVDVGLGYVRLGQPAPTLSGGEAQRVKLASELQKRSTGRTVYILDEPTTGLHFDDIRKLLNVINGLVDKGNTVIVIEHNLDVIKTSDWIIDLGPEGGAGGGTVVAQGTPEDVAAVPASYTGKFLAEVVGGGASAATSRSNRRRNVSA	soluble
MGSDKIHHHHHHMSRTITIDPVTRIEGHATITIRLDDAGSVADARLHVTEFRGFEAFCVGRSIWEMPGITARICGICPISHSIASARAGDAILGVDIPPAAEQLRRIANLASLIQSHALSFFHLCAADLLLGMDHDPSRRSLWGLLESRPDVARRGIRLRQIGQQIVSNLAGERVHPSWAVPGGVREPLDAERRRKVVELLPEGIAIIRSAFELLDEIYGRHGAEVGTYGDFPSLFAGLVGEDGGLEHYDGMLRFTDSSGAVVEEVPPDHYDLAIGERSEPWSYMKFPFYRNHAGRDGGGMFRVGPLARLNLCERAGTPEADRELQTFRQLRGTGGVVTGSFHYHHARLIEILHALERIGELLDDPAILDRHVRSEAGVNRRHGVGFCEAPRGTLFHDYEVDDDGLILRLNLLIATGQNNLAMNRTILEVARSHIKGGKVSEGILNRIEHGIRAYDPCLSCATHVYGRMPFQVLLLAPDGTVVDEIAS	not soluble
MAHHHHHHMLRRVPLRLARRKHGQTAWSPNNTSSGAAPTNGITAQEALQIAYRPMPPANTVEYEEDFGPNMMIHREFVSSRHRTRMASDISALAYSDVELARARQQLAGVMNRERRGALVGSGGEAGDRVLFNSDVDETTREVKSARFLFNEQRMRFCDRFQTFFRERIERWAAGDAGAGEDDHPYFSLMEACAVLHGCDTVDAREVYYRRFLGLDLDTLEAEEAALRARAADAAEVGARLTRGEAGAGGGALVAAAAGGAGGAGSATDVVQDIIDALPPLFPQPAAAEVGEASEAVADAPPARARAAGAGELPPATAAAPAHLAEDAAPLYKAYLAHARGESPVGSYDVTTLGAHAAHAERRRWRSLMDKIAAEDYHELTAAELEDAHVLNGQLHTVKFFDLKVGDTVREIVQLLERETGSSASGDRDVPVEMSPTHPERRV	not soluble
MKILLVFDFDNTIIDDNSDTWIVQCAPNKKLPIELRDSYRKGFWTEFMGRVFKYLGDKGVREHEMKRAVTSLPFTPGMVELFNFIRKNKDKFDCIIISDSNSVFIDWVLEAASFHDIFDKVFTNPAAFNSNGHLTVENYHTHSCNRCPKNLCKKVVLIEFVDKQLQQGVNYTQIVYIGDGGNDVCPVTFLKNDDVAMPRKGYTLQKTLSRMSQNLEPMEYSVVVWSSGVDIISHLQFLIKD	not soluble
MAHHHHHHMGAVDYEVNETHLTGAQALSDYLLDTWYVHDMPRYGAVSCIDRNVTALLRFADEWRGTNVNVFLYNSSSHHQAGLSLATYYDLFIKSFLGRDSAFMRYEAELFNEPASQSQLGFIFIGAPGGRSAGGLPGRAVGRHGPCGAARGVDCDPARRRALLRCADDAPPGGGGGACEHCGDHGARVRAVCRRQGTPEEQVRQRLRGERAAGVGAARGALCVVHAGGVPRRCAERRRGSAVRVPAAARSRLR	not soluble
MRRILSVLLENESGALSRVVGLFSQRAFNIESLTVAPTDDPTLSRMTIEAVGDAQALEQIEKQLHKLVDVFKVVNLSEQEHIEREIVLAKVRAVGSSRDEIKRLADIFRGQIVDVTPKSYTIQLSGTNDKVDAFISALKEETTLLEIVRSGLISVSRGEKNILLEHHHHHH	not soluble
GSHMFYAVRRGRKTGVFLTWNECRAQVDRFPAARFKKFATEDEAWAFVRKSAS	soluble
QVTLKESGPTLVKPTQTLTLTCTFSGFSLRTSRVGVSWIRQPPGKALEWLAHIYWDDDKRYNPSLKSRLTISKDTSKNQVVLTMTNMDPVDTATYYCARRGFYGRKYEVNHFDYWGQGTTVTVSSASTKGPSVFPLAPSSKSTSGGTAALGCLVKDYFPEPVTVSWNSGALTSGVHTFPAVLQSSGLYSLSSVVTVPSSSLGTQTYICNVNHKPSNTKVDKKVEPKSCG	soluble
MSLSSHKPTVVLADSNDDFRSYLTSCLTEEFTIKSFRDGIEAMAYIKNEYPDLVICDTELQNMDGVELSSRLKTSCETSIIPIILYSSHIDINQHNRRKTSLADTFLQQPFSVTDLKLEMSILIKNTRFLRKSFLQRLFGEEFLETKASEILQDGKHPLISKVTKIILENLNNEKLTIDSIAKELGISRTSLYNKWTQLTGEALNKFILKIRMEKAHEMLKSGKYRVNEVPEKIGMKDMDNFREKYKKYFGKTPVDTIKNEGHHHHHH	soluble
MGSDKIHHHHHHMSEKQTTILIINMASDFGGGEIQTEELMLNLTNYNICFFGKSSGKFIPRLKEKAPHIKIVNLWEMLKLVFCCSSLIIHAQDGRGAHIAGFLKKISGRPVVITRHVSFPFKRKFSLSSYKNADMLVGVSQQVTENLKLLNSNCRTIYGCIKPLLENAEFEQRYFVKKHILAIAHIGNLQAVKNFQLTLSLAKNFSQIQFFIVGSGELEQELKQQAINLPNITFIPFTPYIGSVFKKVDLQIVPSHSEGLGAVILEGYQYRVSVIAHQTGGISEIVQNEKTGFLVENNDPMIYHKILTTLLDNPQKLCELKQNVERYIFEHDFSARRMALEYEQVYSAILANRTQK	not soluble
MGSDKIHHHHHHMTQNTTLRIGSGSGWWGDRVEPAERSARLGKLDYLCFETMAEATVSAAQVRKRRDPAFGGYDTYLDDRMRAVLPHCIAHGTRIISNQGWIHPLGAARRVAELCKELGLPDVKIAAVTTTDLTSSICELDLTLLESGEHVSTLRETLISAEPYEGVGPIVEALRAGAQIVVTGRVADPSLFLAPMIHHFGWQADDVARLARGSAIGHLLECGAQVTGGYFGDPGYKDVPEPWNLAFPIAEVEADGSAVISKVAGSGGRIDLQTVKEQMFYEVHDPRRYITPDVIVDFSTAVLEQVAPDRVRISGVSGLPRTDTLKVSLGCTEGHIGEDMFFYAGPGCLEKAKLAKRILEERFAMAALRADELRIDFLGVNAVHGAASPEPACEPNEIAVRVAARTRTREEAAKVGREIDSMAVCGLASTGKRVPHQDRTREIIGVWSALVPRALIRSQVQFV	not soluble
MIILEKEQKEPNRLIKEKSPYLLQHAYNPVDWYPWGEEAFEKARKENKPVFLSIGYSTCHWCHMMAHESFEDEEVAGLMNEAFVSIKVDREERPDIDNIYMTVCQIILGRGGWPLNIIMTPGKKPFFAGTYIPKNTRFNQIGMLELVPRIKEIWEQQHEEVLDSAEKI	not soluble
MRKSLEIGKCVVLEVLTPRGTNLGRFMEFTEEAWKTGIDAFTVTDMPMGRVRMAPWAASHLLVESGKDVLMHFTRNTRNMIRIQSDLLGCHALGVKNLLLLSGDNPSHGDYPETTSVNDIDILDLIRLTKLMNEGTDLAGNKIYGKTDFFVGGALNPFSDKDIKRAKQKIEAGVDFLVTQPLFNSEVAKKIKEELNTKILASIVFFENAKQMSYFSSVPGIEIPDEIVNSTEKGDDYLKEKSFESVLRFVEETKGVLDGFYIVAIVKDLEKIRKVVEIAKS	not soluble
MAHHHHHHMNFEDDDDIVIPGEFLGLQAEYINGNNTYLLKDEIRSSILGQKIINKNNDKKTIISVYNLKPPSLYLPKIGDIVICKVQRVSFHMIYCYILSSHNIFTKNALKGFILKSDIHINEGELGDNFICFKQGDIIKAKVLSIGQYSSYKLSTVGSELGVIAAFNQKGEILRPVAWNLVLNINDMTFERRKASNDFSLLL	not soluble
MIDGIESGLGIAQAFPSVTGEAKPGNLAADGGKFFGELVSKVSELQAQSDTAIKGLVSGESKGLHEVMIAMEKSSISFQFLSQVRNKAVEAYQEVMRMQV	not soluble
MMSDRHFQGNRIRLRAPEPEDLEVMFRFENATDVWEMSNTTGPYSRFQLKQYIEQTQNDLFADRQLRLMIENGNRQVVGIVDLCSFDPLHNRAEVGIMVDKSCRRQGIGRNALALLEEHCFRYLGIHQLFAYIAVENLPSRRLFAACGYKESAVLKEWAHTFGGGYTDVLVVQKLNLS	not soluble
MSKQQIGVVGMAVMGRNLALNIESRGYTVSIFNRSREKTEEVIAENPGKKLVPYYTVKEFVESLETPRRILLMVKAGAGTDAAIDSLKPYLDKGDIIIDGGNTFFQDTIRRNRELSAEGFNFIGTGVSGGEEGALKGPSIMPGGQKEAYELVAPILTKIAAVAEDGEPCVTYIGADGAGHYVKMVHNGIEYGDMQLIAEAYSLLKGGLNLTNEELAQTFTEWNNGELSSYLIDITKDIFTKKDEDGNYLVDVILDEAANKGTGKWTSQSALDLGEPLSLITESVFARYISSLKDQRVAASKVLSGPQAQPAGDKAEFIEKVRRALYLGKIVSYAQGFSQLRAASEEYNWDLNYGEIAKIFRAGCIIRAQFLQKITDAYAENPQIANLLLAPYFKQIADDYQQALRDVVAYAVQNGIPVPTFSAAVAYYDSYRAAVLPANLIQAQRDYFGAHTYKRIDKEGVFHTEWLD	soluble
MAEFRIAQDVVARENDRRASALKEDYEALGANLARRGVDIEAVTAKVEKFFVAVPSWGVGTGGTRFARFPGTGEPRGIFDKLDDCAVIQQLTRATPNVSLHIPWDKADPKELKARGDALGLGFDAMNSNTFSDAPGQAHSYKYGSLSHTNAATRAQAVEHNLECIEIGKAIGSKALTVWIGDGSNFPGQSNFTRAFERYLSAMAEIYKGLPDDWKLFSEHKMYEPAFYSTVVQDWGTNYLIAQTLGPKAQCLVDLGHHAPNTNIEMIVARLIQFGKLGGFHFNDSKYGDDDLDAGAIEPYRLFLVFNELVDAEARGVKGFHPAHMIDQKHNVTDPIESLINSANEIRRAYAQALLVDRAALSGYQEDNDALMATETLKRAYRTDVEPILAEARRRTGGAVDPVATYRASGYRARVAAERPASVAGGGGIIGSHHHHHH	soluble
